Experimental data as given in the supplement of paper PMC6757056.
± gives the standard deviation of the averaged measurements.

B1: library; a variant is named by its letters at N, in order (parent)
chain: GCUGUCACCGGUGCUUGGUACGUUAUAUUCAGCCGGUCUGAUGAGUCUNNNNNNAGACGAAACAGC

Key:
[1] = variants of: B1; assay: normalized RNA/DNA level without ligand (relative to sTRSVctl = 100) (log10 (% of sTRSVctl)); HEK293T overexpressing SLC46A1; higher = less ribozyme self-cleavage, higher mRNA level; settings: without (6R,S)-folinic acid; ligand present: no
Summary of the method: (§1)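 Total RNA, extracted with EDTA 72 h after HEK293T cells were transfected with 4 µg per 6-well well of reporter-linked ribozyme switch library plasmids, was reverse-transcribed, amplified, barcoded and sequenced. Ligand, if used, was added 1 h before transfection. RNA level was derived from RNA reads divided by DNA reads and normalized to a spiked-in non-cleaving sequence or to the top sequences. This was multiplied by 100 and log10-transformed, with the top set of 25 sequences and a ≥100 DNA read minimum.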

[2] = variants of: B1; assay: normalized RNA/DNA level with ligand (relative to sTRSVctl = 100) (log10 (% of sTRSVctl)); HEK293T overexpressing SLC46A1; ligand concentration (+) RNA-Seq: 6 mM; higher = less ribozyme self-cleavage, higher mRNA level; settings: with (6R,S)-folinic acid; ligand present: yes
Summary of the method: as §1

Variant	normalized RNA/DNA level without ligand (log10) [1]	normalized RNA/DNA level with ligand (log10) [2]
GCUGUCACCGGUGCUUGGUACGUUAUAUUCAGCCGGUCUGAUGAGUCUGAUCCAAGACGAAACAGC [GAUCCA]	2.034 ± 0.0061	2.02 ± 0.039
GCUGUCACCGGUGCUUGGUACGUUAUAUUCAGCCGGUCUGAUGAGUCUGAUCCUAGACGAAACAGC [GAUCCU]	2.066 ± 0.02	2.06 ± 0.053
GCUGUCACCGGUGCUUGGUACGUUAUAUUCAGCCGGUCUGAUGAGUCUGAUCCGAGACGAAACAGC [GAUCCG]	2.0564 ± 0.0019	2.05 ± 0.063
GCUGUCACCGGUGCUUGGUACGUUAUAUUCAGCCGGUCUGAUGAGUCUAAUCCCAGACGAAACAGC [AAUCCC]	2.023 ± 0.003	2 ± 0.043
GCUGUCACCGGUGCUUGGUACGUUAUAUUCAGCCGGUCUGAUGAGUCUAAUCCGAGACGAAACAGC [AAUCCG]	1.969 ± 0.014	2.02 ± 0.055
GCUGUCACCGGUGCUUGGUACGUUAUAUUCAGCCGGUCUGAUGAGUCUUAUCCCAGACGAAACAGC [UAUCCC]	2.047 ± 0.0027	2.01 ± 0.042
GCUGUCACCGGUGCUUGGUACGUUAUAUUCAGCCGGUCUGAUGAGUCUUAUCCAAGACGAAACAGC [UAUCCA]	1.979 ± 0.0079	2.001 ± 0.0084
GCUGUCACCGGUGCUUGGUACGUUAUAUUCAGCCGGUCUGAUGAGUCUUAUCCUAGACGAAACAGC [UAUCCU]	2.009 ± 0.0051	2 ± 0.048
GCUGUCACCGGUGCUUGGUACGUUAUAUUCAGCCGGUCUGAUGAGUCUUAUCACAGACGAAACAGC [UAUCAC]	1.978 ± 0.0043	1.99 ± 0.013
GCUGUCACCGGUGCUUGGUACGUUAUAUUCAGCCGGUCUGAUGAGUCUAAUCAAAGACGAAACAGC [AAUCAA]	1.973 ± 0.014	1.9902 ± 0.00064
GCUGUCACCGGUGCUUGGUACGUUAUAUUCAGCCGGUCUGAUGAGUCUAAUCAUAGACGAAACAGC [AAUCAU]	1.961 ± 0.0057	1.992 ± 0.011
GCUGUCACCGGUGCUUGGUACGUUAUAUUCAGCCGGUCUGAUGAGUCUAAUCACAGACGAAACAGC [AAUCAC]	2.008 ± 0.0074	2 ± 0.024
GCUGUCACCGGUGCUUGGUACGUUAUAUUCAGCCGGUCUGAUGAGUCUGAUCGAAGACGAAACAGC [GAUCGA]	2.033 ± 0.008	2.02 ± 0.036
GCUGUCACCGGUGCUUGGUACGUUAUAUUCAGCCGGUCUGAUGAGUCUGAUCGCAGACGAAACAGC [GAUCGC]	1.998 ± 0.016	2.032 ± 0.014
GCUGUCACCGGUGCUUGGUACGUUAUAUUCAGCCGGUCUGAUGAGUCUGAUAUCAGACGAAACAGC [GAUAUC]	2.02 ± 0.018	2.03 ± 0.036
GCUGUCACCGGUGCUUGGUACGUUAUAUUCAGCCGGUCUGAUGAGUCUGAUAUUAGACGAAACAGC [GAUAUU]	2.005 ± 0.0061	2.02 ± 0.041
GCUGUCACCGGUGCUUGGUACGUUAUAUUCAGCCGGUCUGAUGAGUCUCAUAUAAGACGAAACAGC [CAUAUA]	1.954 ± 0.019	1.97 ± 0.036
GCUGUCACCGGUGCUUGGUACGUUAUAUUCAGCCGGUCUGAUGAGUCUUAUAGUAGACGAAACAGC [UAUAGU]	1.874 ± 0.014	1.97 ± 0.041
GCUGUCACCGGUGCUUGGUACGUUAUAUUCAGCCGGUCUGAUGAGUCUUAUAUAAGACGAAACAGC [UAUAUA]	1.944 ± 0.0099	2 ± 0.034
GCUGUCACCGGUGCUUGGUACGUUAUAUUCAGCCGGUCUGAUGAGUCUUAUAUCAGACGAAACAGC [UAUAUC]	2.027 ± 0.0026	2.01 ± 0.036
GCUGUCACCGGUGCUUGGUACGUUAUAUUCAGCCGGUCUGAUGAGUCUUAUAUUAGACGAAACAGC [UAUAUU]	1.9864 ± 0.0015	2.01 ± 0.042
